B1: TCR6.3 (TCR)
alpha TRAV35 TRAJ42 CDR3: CAGMNYGGSQGNLIF
beta TRBV6-3 TRBJ1-2 CDR3: CASSYRGAYGYTF
B2: TCR4.1 (TCR)
alpha TRAV35 TRAJ42 CDR3: CAGMNYGGSQGNLIF
beta TRBV4-1 TRBJ1-2 CDR3: CASSQGVGYTF

Target: T1, SARS-CoV-2 Spike protein peptide on HLA-DPA1*01:03 / HLA-DPB1*04:01 (human)
T1 peptide: TFEYVSQPFLMDLE
Assay: multimer staining

Binder	binding result
B1	recognises
B2	recognises
